The target in this assay is TdsR receptor of E. coli (on cells) (E. coli (endogenous in E. coli cells)). As to the kind of experiment: flow cytometry on cells.

Consider one substance from PMC10833071.

As for TepC-GFP (natural protein), the GFP-labeled cells worked out at 33.1%.
